We go through one molecule from US20240083991A1 (Pfizer, published 2024).

Several values for one entry are separate records, joined by “and”; a condition that tells them apart may be missing. Equal values may be shown once. Read-outs that look alike come from different tables or passages of the source.

Test [1] has as its target T1, human mature BMP9 (human, UniProt Q9UK05 320-429).
T1 sequence: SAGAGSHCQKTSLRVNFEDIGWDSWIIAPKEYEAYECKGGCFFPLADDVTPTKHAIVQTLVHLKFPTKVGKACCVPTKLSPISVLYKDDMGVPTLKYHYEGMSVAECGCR
The test can be described thus: cell-based or functional assay.

In test [2] the target is T1, human mature BMP9. Nature of the test: cell-based or functional assay. This is another data set of the same source.
The target in test [3] is T1, human mature BMP9. Nature of the test: cell-based or functional assay. This is another data set of the same source.
Test [4] has as its target T1, human mature BMP9. The test can be described thus: method not stated (legend of the crystal structure figure).
Test [5] concerns the target T2, cyno BMP9 (mature) (cynomolgus monkey, UniProt G7PEU8 320-429).
T2 sequence: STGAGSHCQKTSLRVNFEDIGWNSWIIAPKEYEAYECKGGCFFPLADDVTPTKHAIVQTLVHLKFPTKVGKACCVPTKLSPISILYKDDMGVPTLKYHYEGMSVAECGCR
Nature of the test: cell-based or functional assay.

Test [6] addresses T1, human mature BMP9. Nature of the test: competition ELISA: antibody mixed with 0.6 nM BMP9-biotin, binding to coated BMPRII (1 µg/ml) detected. How it is done:
For competition ELISAs, each receptor protein was coated on a 384-well ELISA plate at its optimal coating concentration, 20 μl/well in PBS-CMF at 4° C. overnight. The next day, plates were washed 3 times with PBS+0.05% TWEEN™ 20 and blocked with PBS+1% BSA for 1 hr at RT with shaking. Anti-BMP9 Abs were serially diluted 3-fold in PBS+1% BSA, starting from 100 nM, then mixed with the same volume of the optimal concentration of biotinylated BMP9. The final concentration of biotinylated BMP9 corresponded to the EC₉₀ for each receptor, as determined in a preliminary experiment described above.
Serially diluted Abs were incubated with biotinylated BMP9 for at least 15 min at RT. Plates were washed as before, followed by addition of serially diluted Abs and the biotinylated BMP9 mixture. After incubating for 1 hr at RT, plates were washed 3 times with PBS+0.05% TWEEN™ 20. Secondary antibody was added (HRP-Streptavidin from BioLegend, cat #405210, 1:2000), followed by 1 hr incubation at RT. Plates were washed as before, signal was developed using TMB substrate, and the reaction stopped with 0.18 M H₂SO₄. Absorbance was read at 450 nm on an ENVISION® plate reader (Perkin Elmer).
(In general: An ELISA detects its analyte on a solid surface through an enzyme-linked reagent.)

In test [7] the target is T2, cyno BMP9 (mature). Nature of the test: cell-based or functional assay. This is another data set of the same source.
The target in test [8] is T1, human mature BMP9. Nature of the test: cell-based or functional assay. This is another data set of the same source.
The target in test [9] is T1, human mature BMP9. The test can be described thus: cell-based or functional assay. This is another data set of the same source.
Test [10] addresses T3, rat BMP9 (mature) (rat, UniProt M0RB87 320-430, Chemically biotinylated for capture on the SPR chip; sites not stated. Natural mature BMP9 is a disulfide-linked homodimer; one monomer chain is given.).
T3 sequence: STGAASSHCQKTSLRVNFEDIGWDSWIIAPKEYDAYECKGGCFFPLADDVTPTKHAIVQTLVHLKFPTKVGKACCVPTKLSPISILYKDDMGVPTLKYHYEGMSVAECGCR
The test can be described thus: cell-based or functional assay.

For test [11], the target named is T2, cyno BMP9 (mature). The test can be described thus: cell-based or functional assay. The source holds these as a separate data set.
Test [12] has as its target T3, rat BMP9 (mature). The test can be described thus: cell-based or functional assay. The source holds these as a separate data set.
In test [13] the target is T2, cyno BMP9 (mature). The test can be described thus: cell-based or functional assay. This is another data set of the same source.
For test [14], the target named is T3, rat BMP9 (mature). The test can be described thus: cell-based or functional assay. The source holds these as a separate data set.
Test [15] concerns the target T1, human mature BMP9. The test can be described thus: cell-based or functional assay. This is another data set of the same source.
Test [16] deals with T3, rat BMP9 (mature). The test can be described thus: cell-based or functional assay. The source holds these as a separate data set.
Test [17] concerns the target T1, human mature BMP9. Nature of the test: cell-based or functional assay. The source holds these as a separate data set.

B1: Ab1076 (antibody, human IgG1, lambda, V domains shown)
VH: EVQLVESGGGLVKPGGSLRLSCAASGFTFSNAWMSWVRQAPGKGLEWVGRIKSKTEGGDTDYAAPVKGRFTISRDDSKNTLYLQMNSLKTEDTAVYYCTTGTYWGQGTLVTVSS
VL: QSVLTQPPSASGTPGQRVTISCSVTNTDIDIFNVHWYQQLPGTAPKLLFFHDYRPSGVSDRFSGSKSGTSASLAIVGLQSEDEGYYYCAGLDEAMRGPVFGGGTKLTVLG
notes: The heavy chain can be prepared with or without the C-terminal lysine
With B1, the “IC50 (read off the curve): BMP9-induced pSMAD1/5/9 nuclear translocation, TIME cells” value with human mature BMP9 [1] and with human mature BMP9 [3] was around 30 pM in each case. Also, the “IC50 (read off the curve): BMP9-induced pSMAD2 nuclear translocation, TIME cells” value with human mature BMP9 [2] and with human mature BMP9 [15] was around 40 pM in each case. Further, in the test with human mature BMP9 [4], the “fold increase in binding affinity relative to Ab93” value was around 20 fold. Also, in the test with cyno BMP9 (mature) [5], the “IC50 (read off the curve): BMP9-induced pSMAD1/5/9 nuclear translocation, cynomolgus monkey PAEC” value was around 20 pM. The “IC50 (read off the curve)” value with human mature BMP9 [6] was around 0.3 nM. Besides, in the test with cyno BMP9 (mature) [7], the “IC50 (read off the curve): BMP9-induced pSMAD2 nuclear translocation, cynomolgus monkey PAEC” value lay within 16 to 30 pM. Besides, in the test with human mature BMP9 [8], the “IC50 (read off the curve): BMP9-induced pSMAD2 nuclear translocation, HPAEC” value is around 30 pM. Also, the “IC50 (read off the curve): Human BMP9-induced pSMAD1/5/9 nuclear translocation, TIME cells” value with human mature BMP9 [9] was around 0.1 nM. Besides, in the test with rat BMP9 (mature) [10], the “IC50 (read off the curve): Rat BMP9-induced pSMAD1/5/9 nuclear translocation, TIME cells” value was around 0.1 nM. In addition, the “IC50 (read off the curve): Cyno BMP9-induced pSMAD1/5/9 nuclear translocation, TIME cells” value with cyno BMP9 (mature) [11] was around 0.1 nM. The “IC50, inhibition of BMP9-induced phospho-SMAD2 nuclear translocation in endothelial cells” value is 0.465 nM and 1 nM with rat BMP9 (mature) [12]; 0.027 to 0.042 nM with cyno BMP9 (mature) [13]. The “IC50 (read off the curve): BMP9-induced pSMAD2 nuclear translocation, rat LSEC” value in the test with rat BMP9 (mature) [14] was around 0.5 nM. Also, the “IC50 (read off the curve): BMP9-induced pSMAD1/5/9 nuclear translocation, rat LSEC” value with rat BMP9 (mature) [16] is around 0.3 nM. Besides, the “IC50 (read off the curve): BMP9-induced pSMAD1/5/9 nuclear translocation, HPAEC” value with human mature BMP9 [17] was around 40 pM.
